Assay [1] concerns the target T1, SARS-CoV-2 바이러스 표면 단백질 (RBD) (SARS-CoV-2, UniProt P0DTC2 319-541). Description: BLI (Octet), full IgG against RBD; printed as kdis. A general note: Biolayer interferometry detects binding as a change in optical thickness at a sensor tip.
The target of assay [2] is T1, SARS-CoV-2 바이러스 표면 단백질 (RBD). Description: BLI (Octet), full IgG against RBD.
For assay [3] the target is unchanged. Description: BLI (Octet), full IgG against SARS-CoV-2 RBD.

B1: No. 32 항체 (Full IgG) (antibody, V domains shown)
VH: EVQLVQSGGGLIQPGGSLRLSCAASEFIVSSNYMTWVRQAPGKGLEWVSIIYPGGSTYYADSVKGRFTISRDNSKNTLYLRMNSLRAEDTAVYYCARDLPLTGTTLDYWGQGTLVTVSS
VL: not shown
What is called koff is a measure of how fast the partners let go of each other. High values mean fast dissociation, low ones slow dissociation. By Kd is commonly meant the equilibrium constant for the complex coming apart. Read a low Kd as higher affinity. As a reminder, the kon is the second-order rate constant of association. A low value points to slower complex formation. B1 showed an off-rate constant (koff) in assay [1] of 0.000193 s⁻¹. Further, in assay [2], the affinity, expressed as Kd, was 0.305 nM and the association rate constant (kon) turned out to be 633000 M⁻¹ s⁻¹. In addition, the Kd in assay [3] is 0.147 nM.

The values above are taken from patent KR20220013311A (dated 2022).
